According to article PMC6328183:

Target: FuBc protein (recombinant protein of the fusion loop and Bc loop of domain II of dengue envelope protein with their neighbouring residues) (DENV-2 (of the template structure PDB 1OAN))
Experiment: SPR; Biacore T200; FuBc immobilised by amine coupling; scFv injected at 10 uM down to 50 nM, 20 ul/min over 2 min; regeneration with 2 M NaCl; control flow cell subtracted; KD as kd/ka

Sequence of 3IXY scFv antibody (VH and VL of the anti-fusion loop dengue E53 Fab, PDB 3IXY, joined by a (G4S)3 linker) (VH): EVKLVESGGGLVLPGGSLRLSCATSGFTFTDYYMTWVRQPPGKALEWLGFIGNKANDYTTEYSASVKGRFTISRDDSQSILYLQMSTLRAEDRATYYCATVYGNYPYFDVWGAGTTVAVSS
Sequence of 3IXY scFv antibody (VH and VL of the anti-fusion loop dengue E53 Fab, PDB 3IXY, joined by a (G4S)3 linker) (VL): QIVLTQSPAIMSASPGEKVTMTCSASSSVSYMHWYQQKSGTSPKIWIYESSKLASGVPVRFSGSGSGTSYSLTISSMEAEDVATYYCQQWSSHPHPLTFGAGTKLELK

3IXY scFv antibody (VH and VL of the anti-fusion loop dengue E53 Fab, PDB 3IXY, joined by a (G4S)3 linker)
Kd: 2300 nM
